Measurements taken from patent publication US20220073608A1 (JIANGSU HUAIYU PHARMACEUTICAL, published 2022).

T1: human SEMA4D, full length, on CHO-K1 cells (CHO-K1 hSEMA4D) (human, UniProt Q92854 22-862)
T1 construct: whole, on cells; also called human SEMA4D recombinant cells
T1 sequence (looked up): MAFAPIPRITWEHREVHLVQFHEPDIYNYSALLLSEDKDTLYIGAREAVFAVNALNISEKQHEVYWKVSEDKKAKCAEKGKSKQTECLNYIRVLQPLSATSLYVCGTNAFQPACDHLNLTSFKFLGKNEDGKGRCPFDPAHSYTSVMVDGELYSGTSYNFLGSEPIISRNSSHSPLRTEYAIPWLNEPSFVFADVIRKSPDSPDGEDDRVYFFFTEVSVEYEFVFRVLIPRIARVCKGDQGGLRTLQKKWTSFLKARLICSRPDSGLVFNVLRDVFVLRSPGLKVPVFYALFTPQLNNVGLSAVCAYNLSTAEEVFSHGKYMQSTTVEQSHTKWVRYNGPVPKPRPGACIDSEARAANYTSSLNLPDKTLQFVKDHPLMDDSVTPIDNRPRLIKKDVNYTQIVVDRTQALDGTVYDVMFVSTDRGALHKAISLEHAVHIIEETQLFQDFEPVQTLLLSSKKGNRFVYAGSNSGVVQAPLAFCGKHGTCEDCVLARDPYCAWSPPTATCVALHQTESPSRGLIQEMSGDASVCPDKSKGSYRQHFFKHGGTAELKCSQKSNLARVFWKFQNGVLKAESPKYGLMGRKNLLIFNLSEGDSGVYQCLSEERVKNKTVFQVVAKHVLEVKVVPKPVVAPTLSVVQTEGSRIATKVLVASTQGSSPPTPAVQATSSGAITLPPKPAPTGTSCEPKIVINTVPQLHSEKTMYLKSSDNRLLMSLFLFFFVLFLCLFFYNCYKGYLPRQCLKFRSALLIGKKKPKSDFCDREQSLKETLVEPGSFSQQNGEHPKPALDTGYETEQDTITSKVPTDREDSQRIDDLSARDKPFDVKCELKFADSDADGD

T2: mouse SEMA4D, full length, on CHO-K1 cells (CHO-K1 mSEMA4D) (mouse, UniProt O09126 24-861)
T2 construct: whole, on cells; also called murine SEMA4D recombinant cells
T2 sequence (looked up): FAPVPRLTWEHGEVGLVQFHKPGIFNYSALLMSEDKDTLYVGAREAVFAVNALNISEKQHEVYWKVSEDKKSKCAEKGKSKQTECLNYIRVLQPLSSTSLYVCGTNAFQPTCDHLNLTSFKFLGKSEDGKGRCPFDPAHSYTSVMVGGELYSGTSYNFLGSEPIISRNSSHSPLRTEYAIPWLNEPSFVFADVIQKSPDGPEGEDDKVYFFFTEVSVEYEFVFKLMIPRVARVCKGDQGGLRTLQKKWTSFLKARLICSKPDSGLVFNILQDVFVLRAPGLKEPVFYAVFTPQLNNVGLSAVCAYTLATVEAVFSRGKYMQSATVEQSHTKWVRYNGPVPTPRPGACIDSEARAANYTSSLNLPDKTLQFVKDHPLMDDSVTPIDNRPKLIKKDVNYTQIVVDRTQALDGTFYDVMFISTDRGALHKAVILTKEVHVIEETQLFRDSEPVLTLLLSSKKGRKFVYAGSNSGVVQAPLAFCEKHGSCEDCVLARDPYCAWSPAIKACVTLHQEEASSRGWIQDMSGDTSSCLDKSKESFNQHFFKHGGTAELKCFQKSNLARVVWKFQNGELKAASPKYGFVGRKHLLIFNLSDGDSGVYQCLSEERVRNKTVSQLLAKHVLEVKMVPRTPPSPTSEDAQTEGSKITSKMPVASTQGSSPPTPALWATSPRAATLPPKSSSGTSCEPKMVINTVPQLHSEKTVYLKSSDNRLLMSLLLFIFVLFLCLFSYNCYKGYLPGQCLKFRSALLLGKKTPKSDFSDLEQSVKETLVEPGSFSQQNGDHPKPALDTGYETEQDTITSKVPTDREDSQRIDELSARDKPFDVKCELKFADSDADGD


What was measured:
[1] = biological target: T1, human SEMA4D, full length, on CHO-K1 …; assay: FACS, CHO-K1 hSEMA4D cells; Ab 0.00427 nM
Method: (§1) The medium was aspirated, the cells were washed once with PBS buffer (purchased from Invitrogen), and then treated with cell dissociation fluid (TrypLE™ Express Enzyme, purchased from Life technology), and the cells were collected. After the cells counted, the cells were washed once with PBS phosphate buffer, and diluted to 3×10⁶ cells per milliliter, and added to the 96-well FACS reaction plate as 100 μL per well. 2% (w/w) fetal calf serum was added to PBS phosphate buffer as FACS buffer, with which the cells were washed once by centrifugation at 2000 rpm 4° C. 100 μL of diluted and purified leading antibodies was added to each well and the plate was incubated for 1 hour on ice. […] Cells were washed 2 times by centrifugation with FACS buffer. The cells were suspended with 200 μL of FACS buffer, and FACS (FACS Verse, purchased from BD) was used to detect and analyze the results.

[2] = biological target: T1, human SEMA4D, full length, on CHO-K1 …; assay: FACS, CHO-K1 hSEMA4D cells; Ab 13.3 nM
Method: as §1

[3] = biological target: T3, monkey SEMA4D, full length, on CHO-K1 cells (CHO-K1 cSEMA4D) (monkey); assay: FACS, CHO-K1 cSEMA4D cells; Ab 0.0213 nM
T3 construct: whole, on cells; also called monkey SEMA4D recombinant cells
Method: (§2) After the cells were counted, they were diluted with PBS to 2×10⁶ cells per milliliter. After washing, 100 μL of diluted and purified leading antibodies was added to each well and the plate was incubated for 1 hour on ice. […] Cells were washed 2 times by centrifugation with FACS buffer. The cells were suspended with 200 μL of FACS buffer, FACS (FACS Verse, purchased from BD) was used to detect and analyze the results.

[4] = biological target: T2, mouse SEMA4D, full length, on CHO-K1 …; assay: FACS, CHO-K1 mSEMA4D cells; Ab 0.000853 nM
Method: as §2

[5] = biological target: T3, monkey SEMA4D, full length, on CHO-K1 …; assay: FACS, CHO-K1 cSEMA4D cells; Ab 2.67 nM
Method: as §2

| MFI [1] | MFI [2] | MFI [3] | MFI [4] | MFI [5] | Binder |
| --- | --- | --- | --- | --- | --- |
| 45.4 | 4290 | 79.4 | 30.2 | 1940 | 37C4F7 (antibody, V domains shown, Mouse monoclonal antibody purified from hybridoma supernatant on protein A) VH: EFQLQQSGPEVVKPGASVKISCKASGYSFTDYNMNWMKQSKGKSLEWIGVINPNYGTTTYNQNFKGKATLTVDQSSSTAYMQLNSLTSEDSAVYYCARDMYYVYAYYTMDYWGQGTSVTVSS VL: DVVMTQTPLSLPVSLGDQASISCRSSQSLVHSNGHTYLHWYLQRPGQSPTLLIYKVSNRFSGVPDRFSGSGSGTDFTLKISRVEAEDLGVYFCSQGTHVPWTFGGGTKLEIK |
| 45.4 | 4630 | 69.1 | 30.1 | 1750 | 38H2E3 (antibody, V domains shown, Mouse monoclonal antibody purified from hybridoma supernatant on protein A) VH: EFQLQQSGPEVVKPGASVKISCKASGYSFTDYNMNWMKQSKGKSLEWIGVISPDYGTTTYNQNFKDKATLTVDQSSSTAYMQLNSLTSEDSAVYYCAKDMYYVYAYYTMDYWGHGTSVTVSS VL: DVVMTQTPLSLPVSLGDQASISCRSSQSLVHSNGHTYLHWYLQRPGQSPTLLIYKVSNRFSGVPDRVSGSGSGTDFTLKISRVEAEDLGVYFCSQGTHVPRTFGGGTKLEIK |
| 86.2 | 7830 | 291 | 30.4 | 4920 | 32C8F10 (antibody, V domains shown, Mouse monoclonal antibody purified from hybridoma supernatant on protein A) VH: EVQLQQSGAELVRPGASVKLSCTASGFNIKDEYIHWVKQRPEQGLEWIGWIDPANGHTEYASRFQAKATITADTSSNTAYLQLSSLTSEDTAVYYCTTGDYDGFAYWGQGTLVTVST VL: QIVLTQSPAIMSASPGEKVTISCSARSSVSYMYWYQQKPGSSPKPWIYRTSNLASGVPARFSGSGSGTSYSLTISSMEAEDAATYYCQHYHTYPYTFGGGTKLEIK |
| 85.5 | 6180 | 414 | 30.1 | 4540 | 31G10C5 (antibody, V domains shown, Mouse monoclonal antibody purified from hybridoma supernatant on protein A) VH: EVQLQQSGAELVRPGASVKLSCTASGFNIKDDYIHWVKQRPEQGLEWIGWIDPANGHIEYASNFQAKATITADTSSNTAYLQLSSLTSEDTAVYYCTTGDYDGFTYWGQGTLVTVST VL: QIVLTQSPAIMSASPGEKVTISCSARSSVSYMYWYQQKPGSSPKPWIYRTSNLASGVPARFSGSGSGTSYSLTISSMEAEDAATYYCQHYHTYPYTFGGGTKLEIK |
| 87.3 | 6670 | 422 | 30.9 | 4420 | 31C11G2 (antibody, V domains shown, Mouse monoclonal antibody purified from hybridoma supernatant on protein A) VH: EVQLQQSGAELVRPGASVKLSCTASGFNIKDEYIHWVKQRPEQGLEWIGWIDPANGHTEYASRFQAKATITADTSSNTAYLQLSSLTSEDTAVYYCTTGDYDGFVYWGQGTLVTVST VL: QIVLTQSPAIMSASPGEKVTIFCSARSSVSYMYWYQQKPGSSPKPWIYRTSNLASGVPARFSGSGSGTSYSLTISSMEAEDAATYYCQHYHTYPYTFGGGTKLEIK |
| 68.9 | 3950 | 216 | 31.1 | 2640 | 42B7G2 (antibody, V domains shown, Mouse monoclonal antibody purified from hybridoma supernatant on protein A) VH: QVQLQQSGAELARPGASVKLSCKASGYTFTDYGISWVKQRTGQGLEWIGEIYLRNDNSYYNEKFKGKATLTADKSSNTAYMELRSLTSEDSAVYFCARWGDHGNNYEDAMDYWGQGTSVTVSS VL: DIVLTQSPASLAMSLGKRATISCRASESVSIIGSNLIHWYQQKPGQPPKLLIYHASNLETGVPARFSGSGSRTDFTLTIDPVEEDDVAIYYCLQSRKVPYTFGGGTKLEIK |
| 51 | 3960 | 103 | 29.7 | 2170 | 37F11F9 (antibody, V domains shown, Mouse monoclonal antibody purified from hybridoma supernatant on protein A) VH: EVQLQQSGPVLVKPGASVKMSCKASGYTFTDYYMNWVKQSHGKSLEWIGLINPYSGGSTFNQKFKAKATLTVDKSSSSAYMDLNSLTSEDSAVYYCARVGDGYYGVTHGMDYWGQGTSVTVSS VL: DIVMTPSQKFMSTTVGDRVSITCKASQNVGTAVAWYQQKPGQSPTILIYSASNRYTGVPDRFTGSGSGTDFTLTISNMKSEDLADYFCQQYYIYPFTFAAGTKLELK |
